Entries after “also recorded” stand apart in the source; their conditions may differ. Primed or numbered codes have the meaning given here. Ends that are not written are not given here. * marks the point of attachment. FITC = O=C1OC2(c3ccc(O)cc3Oc3cc(O)ccc32)c2ccc(NC(=S)*)cc21; FITC′ = fluorescein isothiocyanate label
Assays:
[1] = test system: anti-FF15 antiserum; experiment: CPBA, control serum anti-FF15 antiserum; format: binding, rabbit; settings: FIG. 2B
Method: (§1) Rabbit sera (30 μl/well) in microplate were 2-fold serially diluted in PBS buffer (137 mM NaCl, 2.7 mM KCl, 10 mM Na2HPO4, 2 mM KH2PO4, pH 7.4). After an aliquot of 30 μl of freshly prepared reagent-A (6 μM FITC-KY15, 100 mM Hepes-pH 7.5, and 2 mM EDTA) was added to each well, the microplate was incubated at 37° C. for 50 minutes. An aliquot of 60 μl of reagent B (0.5 M Hepes-pH 8.0, and 2 mM EDTA) was then added to each well to adjust pH to 8.0 for optimal fluorescence detection. To remove all the free fluorescent peptides, MD-Charcoal suspension (200 μl per well) was added, and the mixture was incubated at room temperature for 5 minutes. […] The binding capacity of antiserum for the fluorescent peptide probe was expressed as fluorescence intensity per well. All experiments were performed in triplicates for each datum point and the data were presented as means±SD.

[2] = test system: anti-KY15 antibody; experiment: Charcoal-sorbent peptide binding assay (CPBA), detecting anti-KY15 antibody; settings: FIG. 2B, anti-KY15 rabbit antiserum
Method: as §1

[3] = Capturing capacity and rate of MD-Charcoal for FITC-labeled molecules; settings: for Remaining fluorescence intensities: 3 μM in 60 μl, Ex485/Em535, Gain 35, means±SD (n=3)
Method: Aliquots of FITC-labeled molecules (3 μM in 60 μl) mixed with equal volume of reagent B (2 mM EDTA, 0.5 M Hepes-pH 8.0) were treated with MD-Charcoal (200 μl/well) at room temperature for 1, 5, or 10 minutes.
Data were analyzed by one-way ANOVA and Tukey-HSD multiple range test, and presented as means±SD (n=3). Different successive superscript represents significant difference at p<0.05. The background value from empty well served as blank.

[4] = molecular target: T1, human serum albumin (HSA) (Homo sapiens, UniProt P02768); experiment: CPBA, detecting HSA; format: binding; settings: FIG. 4
T1 construct: purchased Sigma-Aldrich A3782
Method: (§2) The stock solutions of HSA, ovalbumin, and BGG were prepared as 125 μg/ml in HBS buffer (10 mM Hepes-pH 7.0, and 0.15 M NaCl). Aliquots of 30 μl of each protein placed in microplate wells were 2-fold serial diluted in HBS buffer. After an aliquot of 30 μl of freshly prepared reagent-A (6 μM FITC-RD18/FITC-KY15, 100 mM Hepes-pH 7.5, and 2 mM EDTA) was added to each well, the microplate was incubated at 37° C. for 30 minutes. An aliquot of 60 μl of reagent B (0.5 M Hepes-pH 8.0, and 2 mM EDTA) was then added to each well to adjust pH to 8.0 for optimal fluorescence detection. To remove all the free fluorescent peptides, MD-Charcoal suspension (200 μl per well) was added and incubated at room temperature for 5 minutes. […] Background level of fluorescence intensities was measured by replacing protein samples with HBS buffer. The binding capacities of antigens for the fluorescent peptide probes were expressed as net fluorescence intensity per well. All experiments were performed at least in triplicates for each datum point and the data were presented as means±SD.

[5] = CPBA, control non-immune rabbit serum; format: binding; settings: FIG. 2B
Method: as §1

[6] = test system: bovine gamma globulin (BGG); experiment: CPBA, control protein bovine gamma globulin; format: binding; settings: FIG. 4
Method: as §2

[7] = molecular target: T2, ovalbumin (Gallus gallus, UniProt P01012); experiment: CPBA, control protein ovalbumin; format: binding, chicken; settings: FIG. 4
T2 construct: ovalbumin (#A5503; from chicken egg white; 99% in purity); purchased Sigma-Aldrich A5503; host or cells: chicken egg white
T2 sequence (P01012 1-386): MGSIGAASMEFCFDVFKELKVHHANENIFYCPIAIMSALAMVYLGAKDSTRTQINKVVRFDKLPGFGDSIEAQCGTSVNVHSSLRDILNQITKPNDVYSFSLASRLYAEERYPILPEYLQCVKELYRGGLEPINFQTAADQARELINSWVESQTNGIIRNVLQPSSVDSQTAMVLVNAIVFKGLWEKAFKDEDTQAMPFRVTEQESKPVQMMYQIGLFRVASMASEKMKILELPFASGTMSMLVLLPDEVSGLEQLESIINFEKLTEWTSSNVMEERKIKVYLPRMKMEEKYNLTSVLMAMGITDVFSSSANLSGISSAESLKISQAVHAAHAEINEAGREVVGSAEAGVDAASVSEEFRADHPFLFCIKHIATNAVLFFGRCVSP
Method: as §2

| Substance | Affinity of anti-FF15 antiserum for the peptide probe [1] | Binding of peptide probe with anti-KY15 antibody [2] | Remaining fluorescence intensities (% of No Treatment) ([3]; MD-Charcoal treatment 1 min) | Remaining fluorescence intensities ([3]; MD-Charcoal treatment 1 min) | Remaining fluorescence intensities (% of No Treatment) ([3]; MD-Charcoal treatment 5 min) | Remaining fluorescence intensities ([3]; MD-Charcoal treatment 5 min) | Remaining fluorescence intensities (% of No Treatment) ([3]; MD-Charcoal treatment 10 min) | Remaining fluorescence intensities ([3]; MD-Charcoal treatment 10 min) | Binding of peptide probe with HSA [4] | Affinity of non-immune rabbit serum for the peptide probe [5] | Interaction of bovine gamma globulin with peptide probe [6] | Interaction of ovalbumin with peptide probe [7] | Specificity for albumin compared to control proteins, ovalbumin and bovine gamma globulin [4] |
| --- | --- | --- | --- | --- | --- | --- | --- | --- | --- | --- | --- | --- | --- |
| FITC-KY15: N-terminal FITC-labeled peptide KY15, amino acid sequence KSVGRDEREDITYTY; peptide probe for anti-KY15 antibody ({FITC}-KSVGRDEREDITYTY) | did not show affinity | specific binding; also recorded: can be detected | (0.6%) | 1,320 ± 410^2b | (0.5%) | 1,037 ± 33^2b | (0.4%) | 943 ± 29^2b | did not have affinity | did not show affinity |  |  |  |
| FITC-RD18: N-terminal FITC-labeled peptide RD18, amino acid sequence RLIEDICLPRWGCLWEDD; albumin-specific peptide probe ({FITC′}-RLIEDICLPRWGCLWEDD; cysteine pairing not given here) |  |  |  |  |  |  |  |  | linearly dose-dependent |  | did not interact | did not interact | highly specific |
